The values below come from patent US10131702B2, “Glucagon-GLP-1-GIP triple agonist compounds” (priority 2013, dated 2018).

Where two headings read alike, the source gives them in different places. Numbered stars: 1 amine (or outer) side, 2 acyl side, 3 side chain; on linkers, the order of the positions; unused ones are H or OH. Square brackets hold non-standard residues; d marks the D form. Side chains are listed from the residue outwards. Peptide text beside a SMILES is read from it. * marks the point of attachment. C18 diacid = O=C(O)CCCCCCCCCCCCCCCCC(=O)*; γGlu = O=C(O)[C@H](CCC(=O)[*:2])N[*:1]; Stearoyl = CCCCCCCCCCCCCCCCCC(=O)*; Aib = CC(C)(N)C(=O)O

By EC50 is commonly meant the concentration that produces a half-maximal response. In general, half-life refers to how long it takes for the measured level to halve.

The target in one data set is T1, human GCG R (Homo sapiens, UniProt P47871).
T1 construct: expressed in transfected cells
T1 sequence (P47871 26-477): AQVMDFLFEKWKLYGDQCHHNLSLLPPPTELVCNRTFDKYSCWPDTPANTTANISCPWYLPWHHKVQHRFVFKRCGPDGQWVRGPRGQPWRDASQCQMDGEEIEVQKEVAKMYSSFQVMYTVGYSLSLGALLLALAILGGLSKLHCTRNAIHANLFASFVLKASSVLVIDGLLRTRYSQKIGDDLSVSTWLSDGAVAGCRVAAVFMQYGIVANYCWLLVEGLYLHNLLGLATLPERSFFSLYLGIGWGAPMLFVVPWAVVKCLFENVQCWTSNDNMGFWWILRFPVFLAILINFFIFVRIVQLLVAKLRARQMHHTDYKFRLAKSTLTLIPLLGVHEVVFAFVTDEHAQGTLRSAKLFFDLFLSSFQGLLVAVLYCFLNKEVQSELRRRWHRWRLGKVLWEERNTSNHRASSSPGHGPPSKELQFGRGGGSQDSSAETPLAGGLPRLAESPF
Description: cAMP induction in HEK293 cells expressing human GCG R (AlphaScreen cAMP kit). The settings on record: Table 2; average EC50, cAMP, HEK293 cells expressing human GCG R; read-out: GCG R (EC50 in nM). Type of data set: cell-based. (In Alpha technology, singlet oxygen from a donor bead excites a nearby acceptor bead.)

In the next data set the target is T2, human GLP-1 R (Homo sapiens, UniProt P43220).
T2 construct: expressed in transfected cells
T2 sequence (P43220 24-463): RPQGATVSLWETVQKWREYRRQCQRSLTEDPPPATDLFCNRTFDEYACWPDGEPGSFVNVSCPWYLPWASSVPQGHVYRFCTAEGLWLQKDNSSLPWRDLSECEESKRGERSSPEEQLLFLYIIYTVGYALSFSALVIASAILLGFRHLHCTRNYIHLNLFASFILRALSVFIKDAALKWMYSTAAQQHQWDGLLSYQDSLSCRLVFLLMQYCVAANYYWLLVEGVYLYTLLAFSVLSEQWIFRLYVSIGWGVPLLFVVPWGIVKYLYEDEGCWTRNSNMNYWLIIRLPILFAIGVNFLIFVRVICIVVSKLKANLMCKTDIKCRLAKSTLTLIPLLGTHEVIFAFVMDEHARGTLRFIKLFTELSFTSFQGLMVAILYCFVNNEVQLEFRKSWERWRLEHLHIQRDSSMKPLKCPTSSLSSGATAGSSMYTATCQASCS
Description: cAMP induction in HEK293 cells expressing human GLP-1 R (AlphaScreen cAMP kit). Type of data set: cell-based. The settings on record: average EC50, cAMP, HEK293 cells expressing human GLP-1 R, read-out: GLP1 R (EC50 in nM).

In a further data set the target is T3, human GIP R (Homo sapiens, UniProt P48546).
T3 construct: expressed in transfected cells
T3 sequence (P48546 22-466): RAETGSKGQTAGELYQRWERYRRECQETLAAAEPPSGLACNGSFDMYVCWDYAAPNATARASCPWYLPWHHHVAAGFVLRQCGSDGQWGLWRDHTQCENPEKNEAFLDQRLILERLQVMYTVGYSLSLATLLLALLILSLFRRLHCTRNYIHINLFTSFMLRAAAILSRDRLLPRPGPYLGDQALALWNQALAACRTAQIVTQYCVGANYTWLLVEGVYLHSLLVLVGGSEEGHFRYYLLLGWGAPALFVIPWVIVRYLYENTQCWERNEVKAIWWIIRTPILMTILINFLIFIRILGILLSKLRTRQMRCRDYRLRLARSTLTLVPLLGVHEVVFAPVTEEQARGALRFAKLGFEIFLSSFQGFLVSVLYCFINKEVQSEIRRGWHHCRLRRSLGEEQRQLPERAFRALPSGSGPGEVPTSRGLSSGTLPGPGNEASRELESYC
Description: cAMP induction in HEK293 cells expressing human GIP R (AlphaScreen cAMP kit). In kind it is cell-based. To be noted: read-out: GIP R (EC50 in nM).

The next data set in a line: in vivo. Set-up: species or system C57BL/6J mice. To be noted: male, C57BL/6J, mouse, iv, 200 nmol/kg. An excerpt:
Pharmacokinetics of Selected Compounds in Mice Method C57BL/6J mice (males with a body weight of approximately 25 g) were given a single intravenous (i.v.) bolus of each peptide to be tested. […] Blood samples were drawn by sublingual bleeding. The dosing vehicle was a phosphate buffer containing mannitol (pH 7.5). At each sampling time point, samples from two mice were drawn, i.e. 16 mice were included for each compound. The mice were euthanized immediately after blood sampling by cervical dislocation. Plasma samples were analyzed after solid phase extraction (SPE) or precipitation by liquid chromatography mass spectrometry (LC-MS/MS). Mean plasma concentrations were used for calculation of the pharmacokinetic parameters using the non-compartmental approach in Phoenix WinNonlin 6.3. Plasma terminal elimination half-life (T½) was determined as […] where λz is the magnitude of the slope of the log linear regression of the log concentration versus time profile during the terminal phase.

For data set [1], the target named is human glucagon receptor (human) (UniProt P47871). Description: cell-based or functional assay.
Sequence of human glucagon receptor (human) (P47871 26-477): as the sequence (P47871 26-477) above
The target of data set [2] is human GIP receptor (human) (UniProt P48546). Description: cell-based or functional assay.
Data set [3] deals with T4, human glucagon-like peptide 1 receptor (human, UniProt P43220 24-463). Nature of the data set: cell-based or functional assay.
The target in data set [4] is T5, human GIP receptor (human, UniProt P48546 22-466).
T5 sequence: T3 sequence (P48546 22-466)
Description: cell-based or functional assay.

Data set [5] has as its target T6, human glucagon receptor (human, UniProt P47871 26-477). Description: cell-based or functional assay.
Data set [6] deals with T4, human glucagon-like peptide 1 receptor. Nature of the data set: cell-based or functional assay. This is another data set of the same source.
Data set [7] deals with T5, human GIP receptor. Nature of the data set: cell-based or functional assay. The source holds these as a separate data set.
Data set [8] deals with T6, human glucagon receptor. Nature of the data set: cell-based or functional assay. The source holds these as a separate data set.
For data set [9], the target named is human glucagon-like peptide 1 receptor (human) (UniProt P43220). Description: cell-based or functional assay.
Sequence of human glucagon-like peptide 1 receptor (human) (P43220 24-463): as the sequence (P43220 24-463) above
The target is the same in data set [10]. Description: cell-based or functional assay. The source holds these as a separate data set.
Data set [11] concerns the target human GIP receptor (human) (UniProt P48546). Description: cell-based or functional assay. The source holds these as a separate data set.
The mark [12] stands for this setting: Table 2b (most comprehensive data).
The mark [13] stands for this setting: Table 2b (most comprehensive data), average EC50, cAMP.

T6 sequence (P47871 26-477): as the sequence (P47871 26-477) above
Description for human GCG R: Briefly, HEK293 cells expressing the human GIP R, GLP-1 R or GCG R (stable cell lines generated through transfection of the cDNA for human GIP R, GLP-1 R or GCG R and selection of stable clones) were seeded at 30,000 cells/well in 96-well microtiter plates coated with 0.01% poly-L-lysine, and grown for 1 day in culture in 200 μl growth medium (DMEM, 10% FCS, Penicillin (100 IU/ml), Streptomycin (100 μg/ml)). On the day of analysis, growth medium was removed and the cells were washed once with 150 μl Tyrode's buffer (Tyrode's Salts (9.6 g/l), 10 mM HEPES, pH 7.4). […] The Assay buffer was removed and cells are lysed in 80 μl Lysis buffer (0.1% w/v BSA, 5 mM HEPES, 0.3% v/v Tween-20) per well. From each well 10 μl of lysed cells were transferred to a 384-well plate and mixed with 15 μl bead-mix (1 Unit/15 μl anti-cAMP Acceptor Beads, 1 Unit/15 μl Donor Beads, and 1 Unit/15 μl Biotinylated cAMP in Assay Buffer). The plates were mixed and incubated in the dark for an hour at room temperature before measuring using an Envision™ plate reader (Perkin-Elmer).
The resulting cAMP curves were plotted as absolute cAMP concentrations (nM) over log (test compound concentration) and analyzed using the curve fitting program XLfit.
Parameters calculated to describe both the potency as well as the agonistic activity of each test compound on the receptors were:
EC50, a concentration resulting in a half-maximal elevation of cAMP levels, reflecting the potency of the test compound.

Consider `CCCCCCCCCCCCCCCC(=O)N[C@@H](CCC(=O)NCCCC[C@H](NC(=O)[C@H](CCCCN)NC(=O)[C@H](CCC(=O)O)NC(=O)[C@H](CC(C)C)NC(=O)[C@H](Cc1ccc(O)cc1)NC(=O)[C@@H](NC(=O)[C@H](CO)NC(=O)[C@H](Cc1ccc(O)cc1)NC(=O)[C@H](CC(=O)O)NC(=O)[C@H](CO)NC(=O)[C@@H](NC(=O)[C@H](Cc1ccccc1)NC(=O)[C@@H](NC(=O)CNC(=O)[C@H](CCC(N)=O)NC(=O)C(C)(C)NC(=O)[C@@H](N)Cc1ccc(O)cc1)[C@@H](C)O)[C@@H](C)O)[C@@H](C)CC)C(=O)N[C@@H](C)C(=O)N[C@@H](C)C(=O)N[C@@H](CCCCN)C(=O)N[C@@H](CCC(=O)O)C(=O)N[C@@H](Cc1ccccc1)C(=O)N[C@H](C(=O)N[C@@H](CCC(=O)O)C(=O)N[C@@H](Cc1c[nH]c2ccccc12)C(=O)N[C@@H](CC(C)C)C(=O)N[C@@H](CC(C)C)C(=O)N[C@@H](CO)C(=O)N[C@@H](C)C(=O)NCC(=O)N1CCC[C@H]1C(=O)N[C@@H](CO)C(=O)N[C@@H](CO)C(=O)NCC(=O)N[C@@H](C)C(=O)N1CCC[C@H]1C(=O)N1CCC[C@H]1C(=O)N1CCC[C@H]1C(=O)N[C@@H](CO)C(N)=O)C(C)C)C(=O)O` [Compound 32] (HELM PEPTIDE1{Y.[Aib].Q.G.T.F.T.S.D.Y.S.I.Y.L.E.K.K.A.A.K.E.F.V.E.W.L.L.S.A.G.P.S.S.G.A.P.P.P.S.[am]}|PEPTIDE2{[CCCCCCCCCCCCCCCC(=O)[*:2]].[gGlu]}$PEPTIDE1,PEPTIDE2,17:R3-2:R2$$$V2.0), for which the EC50 at human GCG R is 0.15 nM; at human GLP-1 R (Table 2), 0.015 nM; on human GLP-1 R (setting [12]) it was 0.15 nM; at human GIP R (Table 2, average EC50, cAMP), 0.044 nM; on human GIP R (setting [13]), 0.015 nM. This molecule also gave a half-life in “in vivo” of 246 min.
Take “Exendin-4 (from UniProt P26349 48-86) (peptide)”: the EC50 (cAMP induction) in data set [1] was above 10 nM; in data set [2], 0.004 nM.
For `CCCCCCCCCCCCCCCC(=O)N[C@@H](CCC(=O)NCCCC[C@H](NC(=O)[C@H](CCC(=O)O)NC(=O)[C@H](CC(=O)O)NC(=O)[C@H](CC(C)C)NC(=O)[C@H](Cc1ccc(O)cc1)NC(=O)[C@@H](NC(=O)[C@H](CO)NC(=O)[C@H](Cc1ccc(O)cc1)NC(=O)[C@H](CC(=O)O)NC(=O)[C@H](CO)NC(=O)[C@@H](NC(=O)[C@H](Cc1ccccc1)NC(=O)[C@@H](NC(=O)CNC(=O)[C@H](CCC(N)=O)NC(=O)C(C)(C)NC(=O)[C@@H](N)Cc1ccc(O)cc1)[C@@H](C)O)[C@@H](C)O)[C@@H](C)CC)C(=O)N[C@@H](C)C(=O)N[C@@H](C)C(=O)N[C@@H](Cc1c[nH]cn1)C(=O)N[C@@H](CC(=O)O)C(=O)N[C@@H](Cc1ccccc1)C(=O)N[C@H](C(=O)N[C@@H](CCC(=O)O)C(=O)N[C@@H](Cc1c[nH]c2ccccc12)C(=O)N[C@@H](CC(C)C)C(=O)N[C@@H](CC(C)C)C(=O)N[C@@H](CO)C(=O)N[C@@H](C)C(N)=O)C(C)C)C(=O)O` [Compound 28] (HELM PEPTIDE1{Y.[Aib].Q.G.T.F.T.S.D.Y.S.I.Y.L.D.E.K.A.A.H.D.F.V.E.W.L.L.S.A.[am]}|PEPTIDE2{[CCCCCCCCCCCCCCCC(=O)[*:2]].[gGlu]}$PEPTIDE1,PEPTIDE2,17:R3-2:R2$$$V2.0), the concentration giving a half-maximal response (EC50) was found to be 0.16 nM at human GCG R; 0.058 nM on human GLP-1 R (Table 2); 0.16 nM at human GLP-1 R (setting [12]); 0.054 nM at human GIP R (Table 2, average EC50, cAMP); 0.058 nM at human GIP R (setting [13]). In “in vivo”, this molecule gave a half-life of 468 min.

B1: Compound 25 (peptide)
peptide: YAQGTFTSDYSKYLEKKAAKEFVEWLLSA
HELM: PEPTIDE1{Y.[Aib].Q.G.T.F.T.S.D.Y.S.K.Y.L.E.K.K.A.A.K.E.F.V.E.W.L.L.S.A.[am]}|PEPTIDE2{[CCCCCCCCCCCCCCCC(=O)[*:2]].[gGlu]}$PEPTIDE1,PEPTIDE2,12:R3-2:R2$$$V2.0
SMILES: CCCCCCCCCCCCCCCC(=O)N[C@@H](CCC(=O)NCCCC[C@H](NC(=O)[C@H](CO)NC(=O)[C@H](Cc1ccc(O)cc1)NC(=O)[C@H](CC(=O)O)NC(=O)[C@H](CO)NC(=O)[C@@H](NC(=O)[C@H](Cc1ccccc1)NC(=O)[C@@H](NC(=O)CNC(=O)[C@H](CCC(N)=O)NC(=O)C(C)(C)NC(=O)[C@@H](N)Cc1ccc(O)cc1)[C@@H](C)O)[C@@H](C)O)C(=O)N[C@@H](Cc1ccc(O)cc1)C(=O)N[C@@H](CC(C)C)C(=O)N[C@@H](CCC(=O)O)C(=O)N[C@@H](CCCCN)C(=O)N[C@@H](CCCCN)C(=O)N[C@@H](C)C(=O)N[C@@H](C)C(=O)N[C@@H](CCCCN)C(=O)N[C@@H](CCC(=O)O)C(=O)N[C@@H](Cc1ccccc1)C(=O)N[C@H](C(=O)N[C@@H](CCC(=O)O)C(=O)N[C@@H](Cc1c[nH]c2ccccc12)C(=O)N[C@@H](CC(C)C)C(=O)N[C@@H](CC(C)C)C(=O)N[C@@H](CO)C(=O)N[C@@H](C)C(N)=O)C(C)C)C(=O)O
Turning to B1, the “EC50 (cAMP induction)” value in data set [3] was found to be 0.28 nM; in the data set with human GIP receptor [4] it was 0.25 nM; in the data set with human glucagon receptor [5], 0.3 nM; in data set [6] it was 0.28 nM; in the data set with human GIP receptor [7] it was 0.25 nM; with human glucagon receptor [8] it was 0.3 nM.
Take H-Y[Aib]QGTFTSDLSIALEKK([Peg3-Peg3-γGlu-Stearoyl])AQRAFVEWLLAQK-NH2 [Compound 48]: the EC50 (cAMP induction) turned out to be 0.19 nM in [1], 0.013 nM in data set [9] and 0.013 nM in [2].
As to H-Y[Aib]QGTFTSDYSIYLEKK([Peg3-Peg3-γGlu-C18 diacid])AQRAFVEWLLRA-NH2 [Compound 51], the figures for the EC50 (cAMP induction) in data set [1], in [9] and in [2] were 1.4 nM, 0.026 nM and 0.033 nM, respectively.

B2: Compound 42 (peptide)
peptide: YXQGTFTSDYSIALDKKAQRAFVNWLVAXKPSSGAPPPS
modifications: X at 2 and 29 = Aib; Lys 17 as K(Octadecanoyl-isoGlu-Peg3-Peg3); C-terminal amide (-NH2)
For B2, the EC50 (cAMP induction) in data set [1] is 0.032 nM; in data set [9], 0.036 nM; in data set [2], 0.015 nM.

B3: Compound 43 (peptide)
peptide: B2 peptide
modifications: X at 2 and 29 = Aib; Lys 17 as K(Octadecanoyl-Dapa-Peg3-Peg3); C-terminal amide (-NH2)
On to B3, for which the EC50 (cAMP induction) in [1] was 0.036 nM; in data set [9] it was 0.014 nM; in data set [2], 0.0098 nM.

B4: Compound 15 (peptide)
peptide: YXQGTFTSDYSIYLEKKAAHDFVEWLLSA
HELM: PEPTIDE1{Y.[Aib].Q.G.T.F.T.S.D.Y.S.I.Y.L.E.K.K.A.A.H.D.F.V.E.W.L.L.S.A.[am]}$$$$V2.0
SMILES: CC[C@H](C)[C@H](NC(=O)[C@H](CO)NC(=O)[C@H](Cc1ccc(O)cc1)NC(=O)[C@H](CC(=O)O)NC(=O)[C@H](CO)NC(=O)[C@@H](NC(=O)[C@H](Cc1ccccc1)NC(=O)[C@@H](NC(=O)CNC(=O)[C@H](CCC(N)=O)NC(=O)C(C)(C)NC(=O)[C@@H](N)Cc1ccc(O)cc1)[C@@H](C)O)[C@@H](C)O)C(=O)N[C@@H](Cc1ccc(O)cc1)C(=O)N[C@@H](CC(C)C)C(=O)N[C@@H](CCC(=O)O)C(=O)N[C@@H](CCCCN)C(=O)N[C@@H](CCCCN)C(=O)N[C@@H](C)C(=O)N[C@@H](C)C(=O)N[C@@H](Cc1c[nH]cn1)C(=O)N[C@@H](CC(=O)O)C(=O)N[C@@H](Cc1ccccc1)C(=O)N[C@H](C(=O)N[C@@H](CCC(=O)O)C(=O)N[C@@H](Cc1c[nH]c2ccccc12)C(=O)N[C@@H](CC(C)C)C(=O)N[C@@H](CC(C)C)C(=O)N[C@@H](CO)C(=O)N[C@@H](C)C(N)=O)C(C)C
As to B4, the EC50 (cAMP induction) in [10] was 0.016 nM; in data set [11], 0.025 nM; in data set [1] it was 0.058 nM; in [9], 0.058 nM; in [2] it was 0.014 nM.
